These are literature values, as cited in article PMC10348426.

pKd: −log10 of the molar value. Read-outs that look alike come from different tables or passages of the source.

Data set [1] addresses ER ECD (Arabidopsis thaliana) (UniProt Q42371).
Data set [2] has the same target. The source holds these as a separate data set.
The target of data set [3] is FER ECD (Arabidopsis thaliana) (UniProt Q9SCZ4). The data set is described as follows: MST.
Sequence of UniProt Q9SCZ4 (Q9SCZ4 28-447): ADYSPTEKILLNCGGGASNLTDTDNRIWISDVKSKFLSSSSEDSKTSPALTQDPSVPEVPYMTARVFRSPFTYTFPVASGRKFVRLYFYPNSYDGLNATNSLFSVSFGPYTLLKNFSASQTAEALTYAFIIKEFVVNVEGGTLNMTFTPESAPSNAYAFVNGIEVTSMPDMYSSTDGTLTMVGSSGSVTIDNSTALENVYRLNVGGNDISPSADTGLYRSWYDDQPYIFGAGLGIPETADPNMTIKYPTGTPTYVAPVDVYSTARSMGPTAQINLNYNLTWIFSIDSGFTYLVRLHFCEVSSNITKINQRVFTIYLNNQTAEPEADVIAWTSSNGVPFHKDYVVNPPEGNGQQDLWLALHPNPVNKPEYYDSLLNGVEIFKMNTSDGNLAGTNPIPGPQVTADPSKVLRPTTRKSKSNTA

Sequence of UniProt Q42371 (Q42371 25-580): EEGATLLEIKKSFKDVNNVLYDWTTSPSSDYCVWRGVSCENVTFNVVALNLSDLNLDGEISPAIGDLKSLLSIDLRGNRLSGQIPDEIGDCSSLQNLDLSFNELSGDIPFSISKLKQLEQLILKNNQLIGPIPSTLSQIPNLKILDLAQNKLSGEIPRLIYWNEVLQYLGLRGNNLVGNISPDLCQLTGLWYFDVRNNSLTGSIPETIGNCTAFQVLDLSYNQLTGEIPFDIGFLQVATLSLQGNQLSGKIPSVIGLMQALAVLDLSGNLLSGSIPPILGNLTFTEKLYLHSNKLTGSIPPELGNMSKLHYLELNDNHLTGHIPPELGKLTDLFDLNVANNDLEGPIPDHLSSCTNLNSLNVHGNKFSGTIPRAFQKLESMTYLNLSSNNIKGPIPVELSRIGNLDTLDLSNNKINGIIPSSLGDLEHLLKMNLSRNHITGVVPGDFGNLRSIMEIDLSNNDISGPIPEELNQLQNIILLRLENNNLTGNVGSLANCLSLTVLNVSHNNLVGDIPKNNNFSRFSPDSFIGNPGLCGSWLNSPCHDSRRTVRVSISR

On to EPF2 (from UniProt Q8LC53), for which the pKd in data set [1] was 7.23.

As for STOMAGEN (from UniProt Q9SV72), in data set [2], the pKd was 7.36. For the substance RALF33 (from UniProt Q8L9P8), the pKd in data set [3] is 6.79.
